Assay results: the nanobody polyreactivity screen of Harvey et al. (2022)

Test: yeast display, Sf9 membrane polyspecificity reagent, FACS + sequencing; frameworks hold sequencing errors
How it was run: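 Nanobodies from a synthetic yeast display library (Saccharomyces cerevisiae BJ5465), induced 36–48 hours with galactose, were stained 1 hour at 4 °C with 10% biotinylated, detergent-solubilized Sf9 membrane reagent, enriched on streptavidin microbeads, then FACS-sorted. Anti-HA (expression) and streptavidin (reagent binding) fluorescence set low and high (top ~1%) gates. Polyreactivity labels come from the gate of origin. Genes were colony-PCR amplified, MiSeq 2 × 250 sequenced and filtered by CDR length.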
In the case of “QVQLVESGGGLVQAGGSLRLSCAPSGFIFIRYAMGWYRQAPGKERELVASISWRGESTYYADSVKWRFTISRDNAKNTVYLQRNILKPEDTAVYYCAATGINSGPGRMDYWGQGTQVTVSS”, the “polyreactivity (PSR sort gate)” value is reported as “high polyreactivity”.
With “QVQLVESGGGLVQAGGSLRLSCAASGRTFYYYAMGWYRQAPGKEWELVAAIRGGGGSTYADSVKGRFTISRDNAKNTVYLQMNSLKPEDTAVYYCNVVRTGRYPGFLTFDYWGQGTQVTVSS” the “polyreactivity (PSR sort gate)” value was “high polyreactivity”.
In the case of “QVQLVESGGGLVQAGGSLRLSCAASGSIFPTYVMGWYRQAPGKERELVAAISARGDSTYADSVKGRFTISRDNAKNTVYLQMNSLKPEDTAVYYCAKSAHSDYVYSRLEFGYWGQGTQVTVSS”, the “polyreactivity (PSR sort gate)” value is reported as “low polyreactivity”.
With “QLQLVESGGGLVQAGGSLRLSCASSGRIFRYNAMGWYRQAPGKERELVAVISGSGGSTYYADSVKGRFTISRDNAKNTVYLQMNSLKPEDTAVYYCAAQFHVSWYNYWGQGTQVTVSS” the “polyreactivity (PSR sort gate)” value was “low polyreactivity”.
With “QVQLVESGGGLVQAGGSLRLSCAASGSTYDIYAMGWYRQAPGKEREKVAAISWSGGSTHYADSVKGRFTISRDNAKNTVFFQMNSLKPEDTAVYYCAAVGRLWSLWRTKSYNYWGQGTEVTVSS” the “polyreactivity (PSR sort gate)” value was “low polyreactivity”.
In the case of “QVQLVESGGGLVQAGGSLRLSSASTGLIFRWYEMGRYRQPPGKETELVAAISRRGGTTNYADSVKGRFTISRDIAKITVYLQMNSLKPEDTAVYYCAADYQSVGVAEYEYWGQGTQVTVSS”, the “polyreactivity (PSR sort gate)” value is reported as “high polyreactivity”.
With “QVQLVESGGRLVQAGGTLPLSSAASGLIFGYYAMGFYIQAPGKERELDADISSGGSTNYADSVKGRFTISRENAKNTVYLQMNRLTPEDTAVFYCAARYSRWFGYCGQGTQVTVSS” the “polyreactivity (PSR sort gate)” value was “high polyreactivity”.
With “QVQHVESGGGLVQAGGSLRLSCAASGYIFYTYAMGWYRQAPGKERELVAGINRGDSTNYADSVKGRFTISRDNAKNTVYLQMNSLKPEDTAVYYCNARQRTYYRTHRIRHKGNGYWGQGTQVTVSS” the “polyreactivity (PSR sort gate)” value was “low polyreactivity”.
With “QVQLVESGGGLVQAGGSLRLSCAASGRIFLYNAMAWYRQAPGKERELVASISSGDTTNYADSVKGRFTISRDNAKNTVYLQMNSLKPEDTAVYYCNAEYGTPYSWFDYWGQGTQVTVSS” the “polyreactivity (PSR sort gate)” value was “low polyreactivity”.
With “QVQLEESGGGLVQAGGSLRLSCAASGSIFVTNAMGWYRQAPVKERELVAAISSGGNTNYADSVKGRFTISRDNAKNTVYLQMNSLKPEDTAVYYCAKDPDKVDYVDMDYWGQGTQVTVSS” the “polyreactivity (PSR sort gate)” value was “low polyreactivity”.
For “QVQLVESGGGLVQAGGSLRLSCAASGRTFGRNAMGWYRQATGKERELVAPISRDGSTYYADSVKGRFTISRDNAKNTVYLQMNSLKPEDTAVYYCAADRPWYYTLTPIHGYDYWGQGTQVTVSS”, the “polyreactivity (PSR sort gate)” value was “low polyreactivity”.
In the case of “QVQLVESGGGLVQAGGSLRLSCAASGSTFYYYAMGWYRQATGKERELVAAISGRGGSTYYADSVKGRFTISRDNAKNTVYLQMNSLKPEDTAVYYCNKRRAAGGFPYDYWGQGTQVTVSS”, the “polyreactivity (PSR sort gate)” value is reported as “high polyreactivity”.
With “QVQLVESGGGLVQAGGSLRLSCAASGIILVQYVMGWYRQAPGKERELVASISRTGGSTYYADSVKGRFTISRDNAKNTVYLQMNSLKPEDTAVYYCAALAYRYSYPRGYWGQGTQVTVSS” the “polyreactivity (PSR sort gate)” value was “high polyreactivity”.
In the case of “QVQLVESGGGLVQAGGSLRVSCAASGSTCSQYVMGWYRQAPGKERELVAAISGGYRTYYADSVKGRFTISRDNAKNTVYLQMNSLKPEDTAVYYCAAEVLKTRWSYDYWGQGTQVTVSS”, the “polyreactivity (PSR sort gate)” value is reported as “high polyreactivity”.
In the case of “QVQLVESGGGLVQAGGSLRLSCAASGSMFTNYAMGWYRQAPGQERELVAAISVGGGRTYYADSVKGRFTISRDNAQNTVYVQLNSLKPEDTAVYYCAARYPFGSLGRYGYWGQGTQVTVSS”, the “polyreactivity (PSR sort gate)” value is reported as “high polyreactivity”.
For “QVQLVESGGGLVQAGGSLRLSCAASGSNVAVYVMGWYRQAPGKERELVAAISISAARTYYADSVKGRFTISRDNAKNTVYLQMNSLKPEDTAVYYGAARLVFRNDSWGQGTQVTVSS”, the “polyreactivity (PSR sort gate)” value was “high polyreactivity”.
For “QVQLVESGGGLVKAGGSLRLSCAASGRTFSRYAMGWYRQAPGTEGEVVAAISYSGASTYYADSVKGRFTISRDNAKNTVYLQMNSLKPEDTAVSYCAARAPGPAPPQIRYGYWGQGTQVTVSS”, the “polyreactivity (PSR sort gate)” value was “high polyreactivity”.
With “QVQLVESGGGLVQAGGSLRLSCAASGSTFYYYAMGWYRQAPGKEREFVAAISWRGGSTYYADSVKGRFTISRDNAKNTVYLQMNSLKPEDTAVYYCAATTLYRGVYYRIFGWGYERGHWGQGTQVTVSS” the “polyreactivity (PSR sort gate)” value was “low polyreactivity”.
With “QVQLVESGGGLVQAGGSLRLSCAASGSIFVSYAMGWYRQAPGKERELVAAITRSGGSTYYADSVKGRFTISRDNAKNTVYLQMNSLKPEDTAVYYCAARSYLGAYRRYYWGQGTQVTVSS” the “polyreactivity (PSR sort gate)” value was “high polyreactivity”.
In the case of “QVQLVESGGGLVQAGGSLRLICAASGSIFSFYAMGWYRQAPGKERELVAAITSDGSTDYADSVKGRFTISRDNAKNTVYLQMNCLKPEDTAVYYCAADYIVRVVSRYRYGYEYWGQGTQVTVSS”, the “polyreactivity (PSR sort gate)” value is reported as “low polyreactivity”.
For “QVQLVESGGGLVQAGGSLRLSCAASGSIFNGYAMGWYRQAPGKERELVADIRSGGSTYYADSVKGRFTISRDNAKNTVYLQMNSLKPEDTAVYYCAADTITDGYDYWGQGTQVTVSS”, the “polyreactivity (PSR sort gate)” value was “low polyreactivity”.
In the case of “QVQLVESVGGLVQAGGSLRLSCAASGSIFYWSAMGWYRQAPGKERELVAAISSGGSTNYADSVKGRFTISRDNAKNTVYLQMNSLKPEDTAVYYCAAGWDASYGYDYWGQGTQVTVSS”, the “polyreactivity (PSR sort gate)” value is reported as “low polyreactivity”.
With “QVQLVESGGGLVQAGGSLLISCAASGRIFYYNTMGWSRQEPGKESELVAAITTNGGSTYYADSVKGRFTISRDNAKITVYLQMNSLNPEDTAVYYCNRDRYPYYSAYNYWGQGTQVTVSS” the “polyreactivity (PSR sort gate)” value was “low polyreactivity”.
For “QVQLVESGGGLVQAGGSLRLSCAASARIYTTYAMGWYRQAPGKERELVASITTTDTRTYADSVKGRFTISRDNAKNTVYLQMNSLKPEDTAVYYCAKDRLNKGRYYRGASDYWGLGTQVTVSS”, the “polyreactivity (PSR sort gate)” value was “low polyreactivity”.
For “QVQLVESGGGLVQAGGSLRLSCAASGSILGYYVMGWYRQAPGKERELVAAISWSSGSTYYADSVKGRFTISRDNAKNTVYLQMNSLKPEDTAVYYCNAGGVYDEFNYWGQGTQVTVSS”, the “polyreactivity (PSR sort gate)” value was “low polyreactivity”.
For “QVQLVESGGGLVQAGGSLRLSCAASGSIFGEYVRGWYREAPGKERELVADISWRDGDTYYADSEKGRFTISRDNAKNTVYLQMNSLKPEDTAVYYCAADVIVPESYGYWPLSYYYWGQGTQVTVSS”, the “polyreactivity (PSR sort gate)” value was “low polyreactivity”.
With “QVQLVESGGGLVQAGGSLRLSCAASGRIWVNAMAWYRQAPRKEMEFVAAISTSSASTYYADSVKGRFTISRDNAKNTVYLQMNSLKPVDTAVYYCAARYLGKKFYYWGQGTQVTVSS” the “polyreactivity (PSR sort gate)” value was “high polyreactivity”.
With “QVQLVESGGGLVQAGGSLRLSCAASGSTIVRYVMGWYRQAPGKERELVAAISRRGGSTYYADSVKGRFTISRDNAKNTVYLQMNSLKPEDTAVYYCARTVGYRTLLESDSWGQGTQVTVSS” the “polyreactivity (PSR sort gate)” value was “high polyreactivity”.
With “QVQLVESGGGLVQAGGSLRLSCAASGRIFYPYSMGWYRQAPGKERELVASINYRGGSTYYADSVNGRFTISRDNAKNTVYLQMNSLKPEDTAVYYCNAVRGFYRYSSSMGYWGQGTQVTVSS” the “polyreactivity (PSR sort gate)” value was “high polyreactivity”.
In the case of “QVQLVESGGALVQAGGRLRLSCAASGSILVTNDMGLYRQAPGKDRELEAAICWSGGSTYYADSVKGRFTISRDNAKNSVYLQMNSLKPEDTAVYYCAAGLGFLFARQALEFDYWGQGTKVTVSS”, the “polyreactivity (PSR sort gate)” value is reported as “low polyreactivity”.
With “QVQLVESGGGLVQAGGSLRLSCAASGFTFPYYAMGWYRQAPGKERELVAAISTRGGSTYYADSVKGRFTISRDNAKNTVYLQMKSLKPEDTAVYYCAADPGRVTRVGVRYYYWGQGTQVTVSS” the “polyreactivity (PSR sort gate)” value was “high polyreactivity”.
With “QVQLVESCVGLVQAGGSLRLSCAASGRIFSRYAMGWYRQAPGKERELVADITWSGGRPYYADSVKGRFTISRDNAKNTVYLQMNSLKPEDTAVYDCAATGGFSWSRDYWGLGTQVTVSS” the “polyreactivity (PSR sort gate)” value was “low polyreactivity”.
In the case of “QVQLVESGGGLVQAGGSLRLSCAASGSTFDYYDMGWYRQSPGKERELVAAISSGGDSTYYADSVKGRFTISRDNAKNTVYLQMNSLKPEDTAVYNCAAAVYYGQSVWYYYWGQGTQVTVSS”, the “polyreactivity (PSR sort gate)” value is reported as “high polyreactivity”.
For “QVQLVESGGGLLQAGGSLRLSCAASGFTFRYYAMGWYRQAPGKERELVAAISRSGGSTYYADSVKGRFTISRDNAKNTVYLQMNSLKPEDTAVYYCAADDRYGSRYYYWGQGTQVTVTS”, the “polyreactivity (PSR sort gate)” value was “high polyreactivity”.
With “QVQLVESGGGLVQAGGSLRLSCAASGRIFIVNTMGWYRQAPGKERELVATIDSDGDTNYADSVKGRFTISRDNAKNTVYLQMNSLKPEDTAVYYCAASYTHTLAALKGGRMDYWGQGTQVTVSS” the “polyreactivity (PSR sort gate)” value was “low polyreactivity”.
With “QVQLVESGGGLVQAGGSLRLSCAASGNTSVPYAMGWYRQAPGKERELVARITWSTGRTYYADSVKGRFTISRDNAKNTVYLQMNSLKPVDTAVYYCATEAWLPGSGGDYWGQVTQVTVSS” the “polyreactivity (PSR sort gate)” value was “low polyreactivity”.
In the case of “QVQLVESGGGLVQAGGSLRLSCAASGRTFYSNAMGWYRQAPGKETELVAAISNRGGSTYYADSLKGRFTISRDNAKNTVYLQMNSLKPEYTAVYYCARYPTKYGYWGQGTQVTVSS”, the “polyreactivity (PSR sort gate)” value is reported as “high polyreactivity”.
In the case of “QVQLVESGGGLVQAGGSLRLTCAPSVRIFTIYDMGRYRQAPGKERELVATITYSSGSTSYADSVKGRFTISRDNAKNTVYLLMNSLKPEDTAVYYCAKKYYSGYGYWGQGTQVTVSS”, the “polyreactivity (PSR sort gate)” value is reported as “low polyreactivity”.
In the case of “QFQLVESGGGLVQAGGSLRLSCAASGSTFGTYAMGWYRQAPGKERELVAAISSGGSTYYADSVKGRFTISRDNAKNTVYLQMNSLKPEDTAVYYCAAGYYWYVWGFGYWGQGTQVTVSS”, the “polyreactivity (PSR sort gate)” value is reported as “low polyreactivity”.
For “QVQLQESGAGLVKAGGSLRLSCAASGNISNHNDMGWYRQAPGKEREFVAGITAGGITNYADSVKRRFTISRDNAKNSVYLQMKSLKPEDTAVYYCAAYPDYDKSYGYWGQGTQATVSS”, the “polyreactivity (PSR sort gate)” value was “low polyreactivity”.
For “QVQLVVSGGGLVQAGGRLRLSCAASGFTFRRNARGWYRQAPGKVWELVAGITSSGTSTYYADSVKGRFTISRDNAKNTVNLQMNSLKPEDTAVYYCNADTPRTGGYWGQGTQVTVSS”, the “polyreactivity (PSR sort gate)” value was “high polyreactivity”.
In the case of “QVQLVESGGGLVQAGGSLRLSCAASGRIFGLNAMGWYRQAPGKERELVAAITGSVGSTYYADSVKGRFTISRDNAKNTVYLQMNSLKPEDTAVYYCNAEYDSRRSSYYRHFNYWGQGTQVTVSS”, the “polyreactivity (PSR sort gate)” value is reported as “low polyreactivity”.
For “QLQLVESGAGLVQAGGSLRLSCAASGRIFAYNTMGRYRQAHGKERELVAVITSGGSTNYADYVKGRFTISRDNAKNTVYLQMNSLKPEDTAVYYCAKRPYGGSGGYRYDYWGQGTQVTVSS”, the “polyreactivity (PSR sort gate)” value was “high polyreactivity”.
